Patent publication US20250115678A1 (AstraZeneca / MedImmune, published 2025)

What was measured:
recombinant human CD8ab = biological target: T1, recombinant human CD8ab (human, UniProt P01732 22-182; P10966 22-170); experiment: SPR (Biacore), soluble antigen, mean ± SD of three experiments
T1 construct: Soluble form of the CD8 alpha/beta heterodimer; construct not described
Method: (§1) KD were calculated as the ratio of koff/kₒₙ from a non-linear fit of the data. Values are presented as mean±standard deviation (SD) of three experiments.

[1] = biological target: T2, recombinant cynomolgus monkey CD8ab (cynomolgus monkey); experiment: as above
T2 construct: Soluble form of the CD8 alpha/beta heterodimer; construct not described
Method: as §1

[2] = biological target: T3, soluble recombinant human GPC3 protein (human, UniProt P51654 25-559, biotinylated in the biolayer interferometry assay); experiment: as above
T3 construct: also called GPC3 human
T3 sequence (P51654 25-559 limits assumed): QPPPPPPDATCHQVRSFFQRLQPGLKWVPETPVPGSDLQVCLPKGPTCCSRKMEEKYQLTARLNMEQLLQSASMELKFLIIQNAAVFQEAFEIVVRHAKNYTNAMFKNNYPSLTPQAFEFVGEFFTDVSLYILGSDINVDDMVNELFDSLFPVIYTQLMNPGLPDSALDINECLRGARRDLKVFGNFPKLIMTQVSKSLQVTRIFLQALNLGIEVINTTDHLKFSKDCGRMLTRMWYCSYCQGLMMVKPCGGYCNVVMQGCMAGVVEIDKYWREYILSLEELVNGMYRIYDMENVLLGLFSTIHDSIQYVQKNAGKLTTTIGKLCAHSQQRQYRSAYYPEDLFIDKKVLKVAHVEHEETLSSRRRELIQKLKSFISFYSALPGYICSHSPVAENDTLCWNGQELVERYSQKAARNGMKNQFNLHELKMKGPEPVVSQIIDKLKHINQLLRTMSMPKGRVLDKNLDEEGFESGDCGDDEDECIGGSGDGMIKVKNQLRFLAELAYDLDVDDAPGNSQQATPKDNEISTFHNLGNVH
Method: as §1

[3] = biological target: recombinant cynomolgus monkey GPC3 (cynomolgus monkey, UniProt A0A2K5VK50 24-558); experiment: as above
Method: as §1

[4] = biological target: T4, GPC3 on human hepatoma cells (Hep3B, HepG2) (human, UniProt P51654 25-554); experiment: flow cytometry on Hep3B cells, goat anti-human-IgG-APC; Hep3B cells
T4 construct: whole, on cells; also called Glypican-3
T4 sequence (P51654 25-554 limits assumed): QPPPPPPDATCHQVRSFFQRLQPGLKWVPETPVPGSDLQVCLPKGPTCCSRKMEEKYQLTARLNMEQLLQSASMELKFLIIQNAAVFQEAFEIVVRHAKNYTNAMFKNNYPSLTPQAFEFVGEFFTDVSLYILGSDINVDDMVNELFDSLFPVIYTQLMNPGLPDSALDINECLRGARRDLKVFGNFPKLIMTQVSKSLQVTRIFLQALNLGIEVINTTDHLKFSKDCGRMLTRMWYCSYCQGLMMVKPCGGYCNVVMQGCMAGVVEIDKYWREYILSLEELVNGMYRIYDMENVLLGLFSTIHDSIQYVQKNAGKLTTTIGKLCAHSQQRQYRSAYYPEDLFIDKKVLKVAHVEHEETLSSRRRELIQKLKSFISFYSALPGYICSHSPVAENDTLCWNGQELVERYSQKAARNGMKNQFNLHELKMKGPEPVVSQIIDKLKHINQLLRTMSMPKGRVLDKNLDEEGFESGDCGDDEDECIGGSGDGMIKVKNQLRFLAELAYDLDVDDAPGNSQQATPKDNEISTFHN
Method: (§2) Cell bindings were measured by flow cytometry.
as §2

[5] = biological target: T4, GPC3 on human hepatoma cells (Hep3B, …); experiment: flow cytometry on HepG2 cells, goat anti-human-IgG-APC; HepG2 cells
Method: as §2, §2

[6] = biological target: T5, LRRC15 on LRRC15pos tumour cell lines (Saos-2 WT, RPMI-7951 WT) (UniProt Q8TF66 22-581, limits assumed); experiment: Flow cytometry on Saos-2 WT cells (LRRC15pos), detected with anti-human Fc Alexa Fluor 647 (MFI)
T5 construct: whole, on cells; also called leucine rich repeat containing 15
T5 sequence (looked up): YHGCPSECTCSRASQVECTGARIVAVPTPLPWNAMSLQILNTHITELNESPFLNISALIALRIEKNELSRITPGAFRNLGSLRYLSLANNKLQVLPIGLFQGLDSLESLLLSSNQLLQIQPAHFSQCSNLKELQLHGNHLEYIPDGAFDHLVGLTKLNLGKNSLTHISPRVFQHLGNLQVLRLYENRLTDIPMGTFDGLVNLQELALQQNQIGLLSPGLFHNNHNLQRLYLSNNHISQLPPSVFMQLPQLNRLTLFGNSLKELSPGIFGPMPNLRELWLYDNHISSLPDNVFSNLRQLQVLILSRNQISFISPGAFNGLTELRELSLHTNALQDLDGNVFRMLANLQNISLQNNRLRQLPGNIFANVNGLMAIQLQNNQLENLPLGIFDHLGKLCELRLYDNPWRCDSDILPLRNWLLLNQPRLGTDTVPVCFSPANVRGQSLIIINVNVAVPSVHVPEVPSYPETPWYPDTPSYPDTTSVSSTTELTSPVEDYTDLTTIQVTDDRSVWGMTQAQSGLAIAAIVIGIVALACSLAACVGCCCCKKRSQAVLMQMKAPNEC

[7] = biological target: T5, LRRC15 on LRRC15pos tumour cell lines …; experiment: Flow cytometry on RPMI-7951 WT cells (LRRC15pos), detected with anti-human Fc Alexa Fluor 647 (MFI)

T1 sequence (P01732 22-182, chain 1 of 2): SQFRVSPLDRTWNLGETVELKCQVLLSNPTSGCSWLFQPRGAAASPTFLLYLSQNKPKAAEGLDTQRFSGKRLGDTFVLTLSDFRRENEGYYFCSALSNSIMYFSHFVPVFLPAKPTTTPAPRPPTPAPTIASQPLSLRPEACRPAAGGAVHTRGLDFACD
T1 sequence (P10966 22-170, chain 2 of 2): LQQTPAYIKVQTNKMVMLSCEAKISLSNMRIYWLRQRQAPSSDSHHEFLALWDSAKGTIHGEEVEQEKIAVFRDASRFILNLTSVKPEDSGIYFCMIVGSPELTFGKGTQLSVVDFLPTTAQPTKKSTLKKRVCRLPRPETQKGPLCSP

B1: LM1653 (other)
light: DVVMTQSPLSLPVTPGEPASISCRSSQSLVHSNRNTYLHWYLQKPGQSPQLLIYKVSNRFSGVPDRFSGSGSGTDFTLKISRVEAEDVGVYYCSQNTHVPPTFGQGTKLEIKRTVAAPSVFIFPPSDEQLKSGTASVVCLLNNFYPREAKVQWKVDNALQSGNSQESVTEQDSKDSTYSLSSTLTLSKADYEKHKVYACEVTHQGLSSPVTKSFNRGEC
heavy 1: QVQLVQSGAEVKKPGASVKVSCKASGYTFTDYEMHWVRQAPGQGLEWMGALDPKTGDTAYSQKFKGRVTLTADKSTSTAYMELSSLTSEDTAVYYCTRFYSYTYWGQGTLVTVSSASTKGPSVFPLAPSSKSTSGGTAALGCLVKDYFPEPVTVSWNSGALTSGVHTFPAVLQSSGLYSLSSVVTVPSSSLGTQTYICNVNHKPSNTKVDKRVEPKSCDKTGGSEVQLVESGGGLVQPGGSLRLSCVASGDVHKINFLGWYRQAPGKEREKVAHISIGDQTDYADSAKGRFTISRDESKNMVYLQMNSLKPEDTAVYFCRAFSRIYPYDYWGQGTLVTVSSGGGGSTHTCPPCPAPPVAGPSVFLFPPKPKDTLMISRTPEVTCVVVDVKHEDPEVKFNWYVDGVEVHNAKTKPREEQYNSTYRVVSVLTVLHQDWLNGKEYKCKVSNKALPAPIEKTISKAKGQPREPQVCTLPPSREEMTKNQVSLSCAVKGFYPSDIAVEWESNGQPENNYKTTPPVLDSDGSFFLVSKLTVDKSRWQQGNVFSCSVMHEALHNHYTQKSLSLSPGK
heavy 2: QVQLVQSGAEVKKPGASVKVSCKASGYTFTDYEMHWVRQAPGQGLEWMGALDPKTGDTAYSQKFKGRVTLTADKSTSTAYMELSSLTSEDTAVYYCTRFYSYTYWGQGTLVTVSSASTKGPSVFPLAPSSKSTSGGTAALGCLVKDYFPEPVTVSWNSGALTSGVHTFPAVLQSSGLYSLSSVVTVPSSSLGTQTYICNVNHKPSNTKVDKRVEPKSCDKTGGSEVQLLESGGGLVQPGGSLRLSCAASGFTFDDYAIGWFRQAPGKEREGVSCIRVSDGSTYYADSVKGRFTISRDNSKNTLYLQMNSLRAEDTAVYYCAAGSLYTCVQSIVWPARPYYDMDYWGQGTLVTVSSGGGGSTHTCPPCPAPPVAGPSVFLFPPKPKDTLMISRTPEVTCVVVDVKHEDPEVKFNWYVDGVEVHNAKTKPREEQYNSTYRVVSVLTVLHQDWLNGKEYKCKVSNKALPAPIEKTISKAKGQPREPQVYTLPPCREEMTKNQVSLWCLVKGFYPSDIAVEWESNGQPENNYKTTPPVLDSDGSFFLYSKLTVDKSRWQQGNVFSCSVMHEALHNHYTQKSLSLSPGK
notes: also called GPC3 TITAN; LM1653 (GPC3)
Recombinant human CD8ab
  Kd: 82.7 nM
  koff: 0.028 s⁻¹
  kon: 340000 M⁻¹ s⁻¹
[1]
  Kd: 62.4 nM
  koff: 0.0329 s⁻¹
  kon: 527000 M⁻¹ s⁻¹
[2]
  Kd: 0.67 nM
  koff: 0.000226 s⁻¹
  kon: 341000 M⁻¹ s⁻¹
[3]
  Kd: 0.82 nM
  koff: 0.000267 s⁻¹
  kon: 326000 M⁻¹ s⁻¹
[4]
  EC50: 8 nM
[5]
  EC50: 2 nM

B2: LRC150016 (other)
light: DIQMTQSPSSLSASVGDRVTITCRASQDISNYLNWYQQKPGGAVKFLIYYTSRLHSGVPSRFSGSGSGTDYTLTISSLQPEDFATYFCQQGEALPWTFGGGTKVEIKRTVAAPSVFIFPPSDEQLKSGTASVVCLLNNFYPREAKVQWKVDNALQSGNSQESVTEQDSKDSTYSLSSTLTLSKADYEKHKVYACEVTHQGLSSPVTKSFNRGEC
heavy 1: EVQLVQSGAEVKKPGASVKVSCKASGYKFSSYWIEWVKQAPGQGLEWIGEILPGSDTTNYNEKFKDRATFTSDTSINTAYMELSRLRSDDTAVYYCARDRGNYRAWFGYWGQGTLVTVSSASTKGPSVFPLAPSSKSTSGGTAALGCLVKDYFPEPVTVSWNSGALTSGVHTFPAVLQSSGLYSLSSVVTVPSSSLGTQTYICNVNHKPSNTKVDKRVEPKSCDKTGGSEVQLVESGGGLVQPGGSLRLSCVASGDVHKINFLGWYRQAPGKEREKVAHISIGDQTDYADSAKGRFTISRDESKNMVYLQMNSLKPEDTAVYFCRAFSRIYPYDYWGQGTLVTVSSGGGGSTHTCPPCPAPPVAGPSVFLFPPKPKDTLMISRTPEVTCVVVDVKHEDPEVKFNWYVDGVEVHNAKTKPREEQYNSTYRVVSVLTVLHQDWLNGKEYKCKVSNKALPAPIEKTISKAKGQPREPQVCTLPPSREEMTKNQVSLSCAVKGFYPSDIAVEWESNGQPENNYKTTPPVLDSDGSFFLVSKLTVDKSRWQQGNVFSCSVMHEALHNRFTQKSLSLSPGK
heavy 2: EVQLVQSGAEVKKPGASVKVSCKASGYKFSSYWIEWVKQAPGQGLEWIGEILPGSDTTNYNEKFKDRATFTSDTSINTAYMELSRLRSDDTAVYYCARDRGNYRAWFGYWGQGTLVTVSSASTKGPSVFPLAPSSKSTSGGTAALGCLVKDYFPEPVTVSWNSGALTSGVHTFPAVLQSSGLYSLSSVVTVPSSSLGTQTYICNVNHKPSNTKVDKRVEPKSCDKTGGSEVQLLESGGGLVQPGGSLRLSCAASGFTFDDYAIGWFRQAPGKEREGVSCIRVSDGSTYYADSVKGRFTISRDNSKNTLYLQMNSLRAEDTAVYYCAAGSLYTCVQSIVWPARPYYDMDYWGQGTLVTVSSGGGGSTHTCPPCPAPPVAGPSVFLFPPKPKDTLMISRTPEVTCVVVDVKHEDPEVKFNWYVDGVEVHNAKTKPREEQYNSTYRVVSVLTVLHQDWLNGKEYKCKVSNKALPAPIEKTISKAKGQPREPQVYTLPPCREEMTKNQVSLWCLVKGFYPSDIAVEWESNGQPENNYKTTPPVLDSDGSFFLYSKLTVDKSRWQQGNVFSCSVMHEALHNHYTQKSLSLSPGK
notes: also called LRC150016 (LRRC15); LRC150016 engager
[6]
  EC50 (read off the curve): ~2 nM
[7]
  EC50 (read off the curve): ~3 nM
